Results on two molecules are retold here after patent US12564609B2, “Hematopoietic stem cell engraftment with a combination of agents” (The Board of Trustees of the Leland Stanford Junior …, priority 2020, dated 2026).

For data set [1], the target named is T1, CD117 (Homo sapiens, UniProt P10721).
T1 construct: JSP191, used as single agent conditioning prior to allogeneic HCT in children with SCID; endogenous in cells; host or cells: hematopoietic stem and progenitor cells of human SCID patients (in vivo, clinical trial)
Particulars: children with SCID, single agent conditioning prior to allogeneic HCT; cited from earlier work.

For data set [2], the system named is HSC. Particulars: non-human primates; cited from earlier work.
Data set [3] concerns human MDS HSC. To be noted: MDS-xenografted mice; cited from earlier work.
Data set [4] relates to hematopoietic stem and progenitor cells. The data set is described as follows: In vivo HSC depletion by anti-CD117 mAb in combination with AZA. Also on record: species or system C57BL/6 mice. Particulars: 1 μg exogenous murine SCF for 5 days in mice treated with ACK2 and AZA, day 11. The method, then: A. Schematic of treatment protocol. C57BL/6 mice were injected retroorbital with single dose of ACK2 500 μg 5 days prior start treatment with AZA. AZA was administered in dose 5 mg/kg/d daily for 5 days. Mice were sacrificed 6, 10, 17 and 20 days after first dose of AZA and bone marrow (BM) and spleens were harvested and analyzed for HSC-depletion and depletion of mature myeloid and lymphoid cells. […] Magnification 100 μm. C. Absolute numbers of the different HSPC compartments in the BM and spleen of untreated controls and mice treated with ACK2 in combination with AZA at 6, 10, 17 20 days after start AZA as measured by flow cytometry; Lin^−Sca1^+c-Kit^+(LSK)CD150+CD48^− (LT-HSC), LSKCD150^−CD48^− (ST-HSC), LSKCD150^+CD48^+ (MPP2), LSKCD150^−CD48^+ (MPP3/4). Data represent mean±SD (n=3-4 per group per timepoint). Statistics were calculated Mann-Whitney test (*P<0.05). […] ACK2 and 2B8 were administered as a single dose of 500 μg retroorbital 5 days prior treatment with AZA; AZA was given at dose 5 mg/kg/d for 5 days. BM was analyzed at d6, d10 and d20 after the start of AZA. […] Statistics were calculated by Kruskal-Wallis test (*P<0.05, ***P<0.001). […] Mice were sacrificed at day 11 after first dose of AZA and BM and spleen were analyzed for HSC-depletion. […] Statistics were calculated by Mann-Whitney test (*P<0.05, ns=non-significant). […]

T1 sequence (P10721 26-976): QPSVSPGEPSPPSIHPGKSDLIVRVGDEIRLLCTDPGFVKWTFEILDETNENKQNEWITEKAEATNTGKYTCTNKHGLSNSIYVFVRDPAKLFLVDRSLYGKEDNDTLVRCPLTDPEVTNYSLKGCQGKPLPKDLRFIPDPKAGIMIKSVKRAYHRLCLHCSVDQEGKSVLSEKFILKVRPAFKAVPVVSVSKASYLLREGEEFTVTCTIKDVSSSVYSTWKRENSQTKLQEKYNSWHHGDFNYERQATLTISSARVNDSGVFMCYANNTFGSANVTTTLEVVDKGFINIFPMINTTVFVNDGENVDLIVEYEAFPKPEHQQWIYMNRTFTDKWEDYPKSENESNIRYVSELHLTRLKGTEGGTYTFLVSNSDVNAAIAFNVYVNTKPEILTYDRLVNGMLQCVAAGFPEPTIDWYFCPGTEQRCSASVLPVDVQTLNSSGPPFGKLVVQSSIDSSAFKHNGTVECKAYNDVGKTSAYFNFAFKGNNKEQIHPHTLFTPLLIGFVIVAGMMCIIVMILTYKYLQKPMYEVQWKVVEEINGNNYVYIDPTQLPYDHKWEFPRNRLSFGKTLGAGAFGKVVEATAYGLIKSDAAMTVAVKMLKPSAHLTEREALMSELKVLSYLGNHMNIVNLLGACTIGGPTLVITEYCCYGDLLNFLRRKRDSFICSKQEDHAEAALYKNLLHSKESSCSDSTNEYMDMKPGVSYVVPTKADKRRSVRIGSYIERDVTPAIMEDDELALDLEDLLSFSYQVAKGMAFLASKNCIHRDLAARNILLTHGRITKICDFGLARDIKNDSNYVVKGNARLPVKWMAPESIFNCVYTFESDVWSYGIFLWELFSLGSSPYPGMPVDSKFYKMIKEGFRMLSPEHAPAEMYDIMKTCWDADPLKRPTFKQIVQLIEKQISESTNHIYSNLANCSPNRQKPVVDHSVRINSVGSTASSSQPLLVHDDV

B1: JSP191: anti-human CD117 mAb, humanized form of SR1, aglycosylated IgG1 (antibody, chains of the INN, looked up, V domains shown)
VH: QVQLVQSGAEVKKPGASVKVSCKASGYTFTSYNMHWVRQAPGQGLEWMGVIYSGNGDTSYNQKFKGRVTITADKSTSTAYMELSSLRSEDTAVYYCARERDTRFGNWGQGTLVTVSS
VL: DIVMTQSPDSLAVSLGERATINCRASESVDIYGNSFMHWYQQKPGQPPKLLIYLASNLESGVPDRFSGSGSGTDFTLTISSLQAEDVAVYYCQQNNEDPYTFGGGTKVEIK
Turning to B1, in data set [1], the “long-term HSC engraftment” value is given as “all showed evidence of long-term HSC engraftment” and the tolerability result is on record as “tolerated JSP191 well, without safety issues”. Further, the “HSC elimination and off-target toxicity” value in data set [2] is on record as “can eliminate HSC with little to no off-target toxicity”. In data set [3], the “depletion of human MDS HSC” value is reported as “depletes human MDS HSC”.

B2: SCF: recombinant murine stem cell factor (PeproTech), ligand of CD117 (protein, UniProt P20826 26-190, looked up)
Soluble KIT ligand: KEICGNPVTDNVKDITKLVANLPNDYMITLNYVAGMDVLPSHCWLRDMVIQLSLSLTTLLDKFSNISEGLSNYSIIDKLGKIVDDLVLCMEENAPKNIKESPKRPETRSFTPEEFFSIFNRSIDAFKDFMVASDTSDCVLSSTLGPEKDSRVSVTKPFMLPPVAA
As to B2, in data set [4], the “ST-HSC, MPP2 and MPP3/4 in the bone marrow” value is “no changes”; the “recovery of LT-HSC in the bone marrow” value is on record as “faster recovery of LT-HSC”.
